# From patent US20260234222A1
# Target: SARS-CoV-2 BQ.1 Spike antigen (SARS-CoV-2 Omicron BQ.1)
# Test: cell-based or functional assay
binder,measurement,value
"Parental mAb 2 (antibody, V domains shown) VH: QMQLMQSGAEVKKPGASVTVSCKASGDTFSDYRIHWVRQAPGQGLEWMGRMNPKSGDTNFAQKFQGRVTMTRDMSINTAYMTLSGLTFDDTALYYCASLLIVGGFDPLDDFEVWGQGTMVTISS VL: QSALTQPPSASGSPGQSVTISCSGTSSDVGGYNFVSWYQHHPGKAPKILIYEVTKRPSGVPDRFSGSKSGNTASLTVSGLQAEDEADYYCSSYGGTNNLLFGGGTKLTVL",Pseudovirion neutralization IC50,10.1 µg/mL
